Assay results published in PMC9808567.

Columns and labels:
Assay in all cases: EMSA
[1] = target: T1, PRPF39 NTD (human, UniProt Q86UA1 1-296)
T1 sequence: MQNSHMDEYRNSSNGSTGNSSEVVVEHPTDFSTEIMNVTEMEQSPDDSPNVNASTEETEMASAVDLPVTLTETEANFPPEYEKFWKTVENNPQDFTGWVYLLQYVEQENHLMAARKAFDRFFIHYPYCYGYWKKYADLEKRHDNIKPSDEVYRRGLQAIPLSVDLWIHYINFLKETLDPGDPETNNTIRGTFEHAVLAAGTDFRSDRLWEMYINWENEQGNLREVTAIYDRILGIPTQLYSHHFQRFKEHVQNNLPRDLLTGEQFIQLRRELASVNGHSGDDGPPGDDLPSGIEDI

[2] = target: T2, PRPF39 CTD (human, UniProt Q86UA1 297-669)
T2 sequence: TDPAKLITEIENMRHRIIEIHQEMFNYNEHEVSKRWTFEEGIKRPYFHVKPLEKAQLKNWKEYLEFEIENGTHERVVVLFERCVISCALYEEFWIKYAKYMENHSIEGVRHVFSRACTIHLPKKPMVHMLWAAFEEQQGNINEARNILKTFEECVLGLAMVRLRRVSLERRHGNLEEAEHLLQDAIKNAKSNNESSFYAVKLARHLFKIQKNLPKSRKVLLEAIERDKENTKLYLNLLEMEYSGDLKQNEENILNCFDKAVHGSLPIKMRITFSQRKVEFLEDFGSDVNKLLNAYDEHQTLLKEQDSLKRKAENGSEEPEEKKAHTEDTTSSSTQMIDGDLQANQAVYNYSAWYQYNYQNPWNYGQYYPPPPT

[3] = target: T3, PRPF39 full-length (human, UniProt Q86UA1 1-669)
T3 sequence: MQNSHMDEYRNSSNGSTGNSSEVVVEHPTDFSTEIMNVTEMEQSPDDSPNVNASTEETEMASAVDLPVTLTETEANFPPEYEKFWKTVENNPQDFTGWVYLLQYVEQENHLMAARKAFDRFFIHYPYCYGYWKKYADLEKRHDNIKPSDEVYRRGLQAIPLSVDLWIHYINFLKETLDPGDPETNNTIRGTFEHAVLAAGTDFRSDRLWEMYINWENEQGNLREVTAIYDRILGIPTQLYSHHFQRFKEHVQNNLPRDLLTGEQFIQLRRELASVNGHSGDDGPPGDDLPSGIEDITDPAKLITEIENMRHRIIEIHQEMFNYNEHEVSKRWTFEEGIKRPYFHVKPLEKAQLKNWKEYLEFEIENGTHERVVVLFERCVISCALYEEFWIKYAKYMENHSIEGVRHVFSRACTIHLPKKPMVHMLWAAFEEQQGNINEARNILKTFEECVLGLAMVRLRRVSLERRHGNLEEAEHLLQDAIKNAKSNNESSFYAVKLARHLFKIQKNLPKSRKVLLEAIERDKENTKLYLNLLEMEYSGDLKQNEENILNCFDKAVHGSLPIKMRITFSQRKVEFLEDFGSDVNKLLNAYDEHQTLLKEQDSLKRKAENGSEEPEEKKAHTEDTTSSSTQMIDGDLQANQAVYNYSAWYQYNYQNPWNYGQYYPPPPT

AAAAAAAAAA (ssRNA) [10 nt poly(A) RNA oligo]
binding result [1]: no binding
binding result [2]: no binding

GGCCCCCCGG (ssRNA) [GC-rich RNA oligo]
Kd [3]: 516 ± 256 nM
